One molecule from patent publication US7470668B2, “Method of use of specific natriuretic peptide receptor c ligands, transgenic non-human mammals expressing specific natriuretic peptide receptor c antagonists and cells thereof” (Enobia Pharma Inc., priority 2005, dated 2008) can be followed below.

The test addresses T1, NPR-C (Homo sapiens, UniProt P17342).
T1 construct: expressed in transfected cells; host or cells: HEK293, transient, pCDNA1.1 (CMV promoter)
T1 sequence (P17342 27-541): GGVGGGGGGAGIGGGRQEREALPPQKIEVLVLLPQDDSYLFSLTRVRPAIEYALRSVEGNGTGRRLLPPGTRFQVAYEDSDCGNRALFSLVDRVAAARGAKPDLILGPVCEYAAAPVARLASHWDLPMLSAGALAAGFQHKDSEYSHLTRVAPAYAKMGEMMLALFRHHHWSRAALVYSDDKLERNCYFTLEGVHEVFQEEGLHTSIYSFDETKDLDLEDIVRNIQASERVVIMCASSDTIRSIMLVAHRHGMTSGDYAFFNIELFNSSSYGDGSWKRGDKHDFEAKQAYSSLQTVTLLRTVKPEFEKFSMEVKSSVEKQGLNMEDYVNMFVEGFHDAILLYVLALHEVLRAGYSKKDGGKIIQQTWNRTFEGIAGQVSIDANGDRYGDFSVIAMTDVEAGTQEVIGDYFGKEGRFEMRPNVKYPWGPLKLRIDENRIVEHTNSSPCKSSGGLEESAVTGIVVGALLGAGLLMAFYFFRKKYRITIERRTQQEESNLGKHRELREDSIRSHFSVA
The test is described as follows: ANP-stimulated cGMP in NPR-C overexpressing HEK293 cells. In kind it is cell-based. The note with it: NPR-C-expressing cells, 0.1 nM ANP plus 10 nM peptide. An excerpt:
The expression plasmid for rat GC-A containing the entire coding sequence cloned between the NheI-KpnI sites of CMV-driven pBK plasmid (Stratagene, La Jolla, Calif.) was kindly provided by Dr. A. De Léan (Département de Pharmacologie, Université de Montréal). The human NPR-C and GC-B coding sequences were amplified by RT-PCR from human embryonic kidney polyA RNA (Clontech, Palo Alto, Calif.) with the following primer pairs: NPR-C-5′-[…]-3′(forward) (SEQ ID NO: 74) and 5′-[…]-3′ (SEQ ID NO: 75) (reverse); GC-B-5′-[…]-3′ (SEQ ID NO: 76) (forward) and 5′-[…]-3′ (SEQ ID NO: 77) (reverse). The resulting PCR products were then cloned downstream of the CMV-promoter into the pCDNA1.1 plasmid (Invitrogen, Burlington, ON, Canada). All constructs were validated by DNA sequencing.

B1: rhOstn[27-133]: N-terminal 6 histidine-tagged recombinant human Ostn amino acids 27-133 produced in E.coli, SEQ ID NO: 57 (protein)
chain: SVDVTTTEAFDSGVIDVQSTPTVREEKSATDLTAKLLLLDELVSLENDVIETKKKRSFSGFGSPLDRLSAGSVDHKGKQRKVVDHPKRRFGIPMDRIGRNRLSNSRG
modifications: N-terminal His6 tag; recombinant mature osteocrin
Consider B1, for which the “increase in cGMP levels (restored ANP signalling)” value came out at 8 fold.
